These results are taken from the nanobody polyreactivity screen of Harvey et al. (2022).

This data set can be described thus: yeast display, Sf9 membrane polyspecificity reagent, FACS + sequencing; frameworks hold sequencing errors. The method in brief: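 A nanobody's polyreactivity label depends on the gate it was sorted from. Yeast display cells were stained with 10% biotinylated, detergent-solubilized Sf9 membrane reagent for 1 hour at 4 °C, enriched on streptavidin microbeads and sorted by FACS. The low and high (top ~1%) gates were set on anti-HA fluorescence for expression and streptavidin fluorescence for reagent binding.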
Take “QVQLVESGGVLVQAGVSLRLSCAASGRTFFRYTMGWYRQAPGKERELVAAISRSDGSTYYADSVKGRFTISRDNAKNTVYLQMNSLKPEDTAVYYCAKSLPSGYYYWGQGTQVTVSS”: the “polyreactivity (PSR sort gate)” value was “low polyreactivity”. Then “QVQLVESGGVLVQAVGSLRLSCAASGSIFHDYALGWYRQAPGKEREMVAAISSGSGSTSYADSVKGRFTISRDNAKNTVYLQMNSLKPEATAVYYCNADADAVPFAFRGSYDYWGQGTQVTVSS”, with “low polyreactivity”; and “QVQLVESGGVLVQPGCILRLSCAASGRIYWYYAMGWYRQAPGKERELVAAISRSRGSTYYADSVKGRFTISRDNEKNTVYLQMNSLKPEDTAVYYCAAGARAFDDDYWGQGTQVTVSS”, with “low polyreactivity”. Take “QVQLVESGGVLVQPGGSLRLSCAASGSTFQSYTMGWYRQAPGKERELVAAISSSGGRTYYADSVKGRFTISRDNEKNTVYLQMNRLKPEDTAVYYCAAVTKSWRGATWYDYWGQGTHVTVSS”: the “polyreactivity (PSR sort gate)” value is “high polyreactivity”. Then “QVQLVESGGVLVQSGGSLRLSCAASGRTFWWYAMGWYRQAPGKERALVAGISSGGSTYYADSVKGRFTISRDNAKYTVYLQMNSLKPEDTAVYYCAKTYWYPWRASLWHEYDYWGQGTQVTVSS”, with “low polyreactivity”; and “QVQLVESGLGLVQAGGSLRLSCAASGTTLLGYAMGWYRQAPGKERELVAAITGSGGRTSYADSVKGRFTISRDNAKNTVYLQMNSLKPEDTAVYYCAAARRYHFQRFNYWGQGTQVTVSS”, with “high polyreactivity”; and “QVQLVESGPGLVQAGGSLRLSSAASGLTFRWNGMGWYRQATGKERELVAAITGNAGSTYYADSVKGRFTISRDNAKNTVYLQMKSLNPEDTAVYYCAARLRYYYLVGYGYWGQGTQVTVSS”, with “high polyreactivity”. Then “QVQLVESGRALVQAGGSLRVSCAASGRTFDTNAMGWYRQAPGKERELVAVITARGGNTSYADSVKGRFTLSRDNAKNSVYLQMNSLKPEDTAVYYCAARVYRAPWTYDEGNYWGQGTQVTVSS”, with “low polyreactivity”; and “QVQLVESGRCLVQAGGSLRLSCAASGITFDGNAMGWYRQEPGKERELVAGITRIGGGTYYADSVKGRFTISRDNAKNTVYLQMNSLKPEDTAVYYSAKDALVPNFTKDIFEYDYWGQVTQVTVSS”, with “low polyreactivity”; and “QVQLVESGRGIVQAGGSLRLSCAASGSTFAVNAMGWYRQAPGKERELVAAISTGGSTNYADSVKGRFTISRDNEKNTVFLQMNSLKPEDTAVYYCAAEHPVTYPTSKFDYWGQGTQVTVSS”, with “low polyreactivity”. Then “QVQLVESGRGKVQAGGSLRLSCAASGFTFRGNAMGWYRQAPGKERELVAAITSSGGRTYYADSVKGRFTISRDNAKNTVYLQMNSLKPEDTAVYYCAARYAYPSRYYYWGQGTQVTVSS”, with “high polyreactivity”; and “QVQLVESGRGLFQAGGSLRLSCAASGSIFYSYAMGWYRQAPGKERELVAAISRSGGSTYYADSVKGRFTISRDNAKNTVYLQMNSLKPEDTAVYYCAAKNTGRYYWGLGTQVTVSS”, with “high polyreactivity”; and “QVQLVESGRGLVHAGGSIRLSCAASGRIFGLYAIGWYRQAPGKERELVASINSRGGSTNYAVSVKGRFTISRDNAMNTVYLQMNSLKPEDTAVYYCNARIVYAYQRYYWGQGTHVTVSS”, with “high polyreactivity”. Take “QVQLVESGRGLVQAGASLRLSCAASGSTFAQYARGSYRQAPWKESELVAAITRTGITNYADSVKGRFTISRDNAKNNVYLQMNSLKPEDTAVYYCAARRWRNGYGTGYGYWGLGTQVTVSS”: the “polyreactivity (PSR sort gate)” value is “high polyreactivity”.

Turning to “QVQLVESGRGLVQAGASLRLSCAASGSTFYVNAMGWYRQAPGKERELVAAITSTGTTHYADSVKGRFTISRDNAKNTVYLQMNSLKPEDTAVYYCAAYSRYQSRRYYYWGQGTQVTVSS”, the “polyreactivity (PSR sort gate)” value is “high polyreactivity”. Then “QVQLVESGRGLVQAGGILRLSCAASGFIFYYYAMVWYRQAPGKERELVAAISQRGGRTYYAESVKGSFTISRDYAKNTVYLQMNSLKTEDTAVYYCAARPAYRSSYYWGQGTQVTVSS”, with “high polyreactivity”. Then “QVQLVESGRGLVQAGGSLRLSCAAAGSTFVSYDLGWSRQAPGKERELLADISWSGVSTDADSVKGRFTLSRDNAKNTVYLQMNSLKPEDPAVYYCAKDSDLYQRGGYYWGQGTQVTVSS”, with “low polyreactivity”; and “QVQLVESGRGLVQAGGSLRLSCAASGFTFKSYAKGWYRHATGKVRELVAAISRGTSTKYADSVKGRFTISRDNAKNTVYLQMNSLKPEDSAVYNCAALFPTSDLRLRYYRYDYWGQGTQVTVSS”, with “low polyreactivity”.

Take “QVQLVESGRGLVQAGGSLRLSCAASGIIFPFYAMGCYRQAPGKERELVAAITSGDDTYYADSVKGRFTISRDNAKNTVYLQMNSLKPEDTAVYYCNKRLYIAGYWPQLYYIMDYWGQGTQVTVSS”: the “polyreactivity (PSR sort gate)” value is on record as “low polyreactivity”. Then “QVQLVESGRGLVQAGGSLRLSCAASGIIFRLNAMGWYRQAPGKERELVAAILRRGGSTYYADSVKGRFTISRDNAKNTVYFQMNSLKPEDTAVDYCAKDPHGSDFGYWGQGTQVTVSS”, with “low polyreactivity”. Then “QVQLVESGRGLVQAGGSLRLSCAASGITCPVNVMGWYRQAPGKERELVAAISTSGGSTYYADSVKGRFTISRDNAKNTVYLQMNSLKPEDTAVYYCARQYIRSSYGYWGQGTQVTVSS”, with “low polyreactivity”. Then “QVQLVESGRGLVQAGGSLRLSCAASGITFEYYAMGWYRQAPGKERELVAAIDTGGSTNYADSVKGRFTISRDNAKNTVYLQMNSLKPEDTAVYYCAADWSWWDGEDYHFEYDYWGQGTQVTVSS”, with “low polyreactivity”. With “QVQLVESGRGLVQAGGSLRLSCAASGITFNFYAKGWYRKAPGKERELVAAITQSGGSTYYADSVKGRFTISRDNAKNTVYLQMISLKPEDTAVYYWAAARTGHMYDLGQGTQVTVSS”, the “polyreactivity (PSR sort gate)” value is “high polyreactivity”. Then “QVQLVESGRGLVQAGGSLRLSCAASGITFTAYAMGWYRQAPGLERQLVATINSTGITNYADSLKGRFTISRDNAKNTVYLQMNSLKPEDTAVYYCAADLLYISSYDGMDYWGQGTQVTVSS”, with “low polyreactivity”. Then “QVQLVESGRGLVQAGGSLRLSCAASGITYGNNAMGWYRQAPGKERELVATITSSGGSTYYADSVKGRFTISRDNAKNTVYSQMNSLKPEDTAVYYCAARQPGTRYPYDYWGQGTQVTVSS”, with “high polyreactivity”; and “QVQLVESGRGLVQAGGSLRLSCAASGLIFTANAMGWYRQAPGKERELVASITRDGGTNYADSVKVRFTISRDNAKNTVYLQMNSLKPEDTAVYYCAKESGSVLTLYDYWGQGTQVTVSS”, with “low polyreactivity”. In the case of “QVQLVESGRGLVQAGGSLRLSCAASGRIFSTYAMGWYRQAPGKERELVAAISWRGSSTYYADSVKGRFTISRDNAKNTVYLQMNSLKPEDPAVYYCNADKANRYDWGQGTQVTVSS”, the “polyreactivity (PSR sort gate)” value is reported as “high polyreactivity”. Then “QVQLVESGRGLVQAGGSLRLSCAASGRIFYVYDMGWYRQAPGKESELVAAITQSGGRTYYADSVKGRFTISRDNAKNTVYLQRNSLKPEDTAVYYCAATWLGSRNLVHITLYYWGQGTQVTVSS”, with “low polyreactivity”; and “QVQLVESGRGLVQAGGSLRLSCAASGRIFYYNDMGWYRQAPGNERELFAAITWTDDGTYYADSVKGRFTISRDNAKNTVYLQMNSLKPVDTAVYYCAKDYNRTVEDWAKVNGFDFWGQVTQVTVSS”, with “low polyreactivity”. Then “QVQLVESGRGLVQAGGSLRLSCAASGRTFPVYAMGWYRQAPGKERELVAAITYSGGSTSYADSVKGRFTISRDNAKNTVYLQMNSLKPEDTAVYYCAADRAYYSRGIGSVGYYYWGQGTQVTVSS”, with “low polyreactivity”.
